Molecular target: AU1-tagged codon-optimised HPV16 E5 mutant M1 (human papillomavirus type 16) (UniProt P06927)
Assay: co-IP; HEK-293T transfected, lysed 20-24 h after transfection in CHAPS buffer (0.2 M NaCl, 50 mM HEPES pH 7.5, 2% CHAPS); immunoprecipitation by the tag of E5 (anti-AU1, anti-HA or anti-GFP), protein G-sepharose, blot with anti-calnexin

B1: calnexin (natural protein)
chain: HDGHDDDVIDIEDDLDDVIEEVEDSKPDTTAPPSSPKVTYKAPVPTGEVYFADSFDRGTLSGWILSKAKKDDTDDEIAKYDGKWEVEEMKESKLPGDKGLVLMSRAKHHAISAKLNKPFLFDTKPLIVQYEVNFQNGIECGGAYVKLLSKTPELNLDQFHDKTPYTIMFGPDKCGEDYKLHFIFRHKNPKTGIYEEKHAKRPDADLKTYFTDKKTHLYTLILNPDNSFEILVDQSVVNSGNLLNDMTPPVNPSREIEDPEDRKPEDWDERPKIPDPEAVKPDDWDEDAPAKIPDEEATKPEGWLDDEPEYVPDPDAEKPEDWDEDMDGEWEAPQIANPRCESAPGCGVWQRPVIDNPNYKGKWKPPMIDNPSYQGIWKPRKIPNPDFFEDLEPFRMTPFSAIGLELWSMTSDIFFDNFIICADRRIVDDWANDGWGLKKAADGAAEPGVVGQMIEAAEERPWLWVVYILTVALPVFLVILFCCSGKKQTSGMEYKKTDAPQPDVKEEEEEKEEEKDKGDEEEEGEEKLEEKQKSDAEEDGGTVSQEEEDRKPKAEEDEILNRSPRNRKPRRE
percent of calnexin co-precipitated, relative to wild type: 50%

Reference: publication PMC2164959
